Biological target: T1, prefusion stabilized SARS-CoV-2 S ectodomain (SARS-CoV-2, UniProt P0DTC2 14-1208)
T1 construct: also called SARS-CoV-2 spike ectodomain; ectodomain of the spike (S) homotrimer of SARS-CoV-2
Assay: assay not stated; row Binding Affinity Spike Trimer, construct not given

B1: DZIF-10c (antibody, V domains shown)
VH: QVQLVESGGGVVQPGRSLRLSCAATGFTFRRYGMHWVRQAPGKGLEWVAGILFDGSNKYYVDSVKGRFTISRDSSRNTLYLQLNSLRREDTAVYYCAKGGDYEWELLESWGQGTLVTVSS
VL: DIQMTQSPSTVSASVGDRVTITCRASQSIDNWLAWYQEKPGKAPKVLIYKASSLESGVPSRFSGRGSGTEFTLTISSLQPGDFATYYCQHYHSFPLTFGGGTKVDIKR
notes: also called HbnC3t1p1_F4(-K); EX14870
**Q.** Which Kd does the source give for B1 here?
**A.** Its Kd is 0.65 nM.
